From patent US20040033952A1 (published 2004)

Assays:
human IGFBP-1 = target: T1, human IGFBP-1 (human, UniProt P08833 26-259); experiment: competitive phage ELISA
T1 construct: mature; also called IGFBP-I
T1 sequence (looked up): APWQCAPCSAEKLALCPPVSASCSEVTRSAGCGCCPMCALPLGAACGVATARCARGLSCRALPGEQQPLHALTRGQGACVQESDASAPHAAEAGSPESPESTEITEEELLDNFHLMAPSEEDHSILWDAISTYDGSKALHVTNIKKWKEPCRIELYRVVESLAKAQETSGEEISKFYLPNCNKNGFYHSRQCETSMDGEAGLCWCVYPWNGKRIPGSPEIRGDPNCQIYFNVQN
Protocol: (§1) E. coli cells (XL1-Blue, Stratagene) freshly transformed with phagemid vector were grown overnight in 5 mL 2YT medium (Sambrook et al., supra) in the presence of M13-VCS helper phage (Stratagene). Phage particles were harvested and resuspended in PBS buffer as described in Lowman, H. B., “Phage Display of Peptide Libraries on Protein Scaffolds,” in Cabilly, S. (ed.), Combinatorial Peptide Library Protocols (Humana Press Inc.: Totowa, N.J., 1998), pp. 249-264. Then phage concentrations were normalized to yield a maximal ELISA signal of 0.2-0.4 for each mutant (Lowman, in Cabilly, S. (ed.), supra). Threefold serial dilutions of soluble competitor were prepared on non-absorbent microtiter plates (Nune, F, 96 wells) with binding buffer (0.5% TWEEN™ 20/PBS) containing phage at the previously-determined concentrations. The dilution range of competitor protein extended over six orders of magnitude, starting at 5 μM for IGFBP-1 and 500 nM for IGFBP-3. After blocking, the plates containing immobilized target were washed with 0.05% TWEEN™/PBS buffer and subsequently incubated with 80 μl/well of the premixed phage-competitor solutions for 1 hour at room temperature. After washing, bound phage was detected with 80 μl/well of a solution containing a primary rabbit anti-phage polyclonal antibody and a secondary goat anti-rabbit monoclonal antibody-horseradish peroxidase conjugate in 0.5% TWEEN20™/PBS. o-Phenylenediamine (Sigma) and tetramethylbenzidine (Kirkegaard and Perry) were used as chromogenic substrates, resulting in product detection at 492 and 450 nm, respectively. IC₅₀ values were determined by fitting the binding data to a generic saturation curve (Lowman, in Cabilly, S. (ed.), supra).

[1] = target: T2, recombinant human IGFBP-3 (human, UniProt P17936 28-291); experiment: competitive phage ELISA
T2 construct: mature
Protocol: as §1

[2] = target: T3, human IGFBP-1 (human), P08833; experiment: competitive phage ELISA; details: remark: other sources report otherwise
T3 chain: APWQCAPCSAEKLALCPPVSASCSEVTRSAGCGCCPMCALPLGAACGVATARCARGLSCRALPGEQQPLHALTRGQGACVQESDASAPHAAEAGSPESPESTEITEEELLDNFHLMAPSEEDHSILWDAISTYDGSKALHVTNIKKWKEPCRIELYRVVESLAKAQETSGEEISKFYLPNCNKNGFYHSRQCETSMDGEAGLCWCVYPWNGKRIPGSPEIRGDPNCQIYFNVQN

[3] = target: T3, human IGFBP-1 (human), P08833; experiment: competitive phage ELISA, IGFBP-3-coated wells, soluble IGFBP-1 as competitor (FIG. 3A); details: remark: other sources report otherwise

T2 sequence (P17936 28-291): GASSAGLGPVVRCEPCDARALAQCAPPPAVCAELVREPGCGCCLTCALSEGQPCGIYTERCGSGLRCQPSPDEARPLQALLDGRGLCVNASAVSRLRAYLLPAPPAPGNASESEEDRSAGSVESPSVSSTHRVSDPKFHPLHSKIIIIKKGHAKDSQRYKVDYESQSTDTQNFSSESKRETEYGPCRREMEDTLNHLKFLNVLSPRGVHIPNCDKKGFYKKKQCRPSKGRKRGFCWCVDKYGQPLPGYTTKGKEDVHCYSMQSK

IGF-I L5A (phage-displayed) (from UniProt P69168 267-424) (ligand)
relative IC50 (IC50 mut/IC50 G1S-A70V) (human IGFBP-1): 6.7 | relative IC50 (IC50 mut/IC50 G1S-A70V) [1]: 2

B1: IGF-I F49A (phage-displayed), P07455 51-118 (ligand, not shown: large carriers; small tags and cut ends)
chain: SPETLCGAELVDALQFVCGDRGFYFNKPTGYGSSSRRAPQTGIVDECCARSCDLRRLEMYCAPLKPAKSV
relative IC50 (IC50 mut/IC50 G1S-A70V) [2]: > 100 | shift of the binding curve against G1S-A70V phage [3]: > 100 fold

B2: Ala(1-3)-IGF-I (phage-displayed triple alanine mutant) (ligand)
chain: AAATLCGAELVDALQFVCGDRGFYFNKPTGYGSSSRRAPQTGIVDECCFRSCDLRRLEMYCAPLKPAKSV
IC50 (human IGFBP-1): 90.4 nM | IC50 [1]: 1.12 nM

B3: IGF-I G7A (phage-displayed) (ligand)
chain: SPETLCAAELVDALQFVCGDRGFYFNKPTGYGSSSRRAPQTGIVDECCFRSCDLRRLEMYCAPLKPAKSV
notes: G1S-A70V template; monovalent M13 display; not shown: M13 gene III fragment (residues 249-406), the display carrier, and its junction to IGF-I
IC50 [1]: 4.58 nM
